# Laboratory results: publication PMC12990809
# Key:
# Assay in all cases: pulldown
# [1] = molecular target: HNRNPA1L2 (Homo sapiens) (UniProt Q32P51); conditions: 20 nM protein, 1.5 uM RNA pool; 20 mM HEPES pH 7.8, 70 mM KCl, 10 mM NaCl, 10% glycerol, 2 mM DTT, 0.1 ug/uL BSA; 30 min, 4 C (protocol of this paper; not …); cited from earlier work
# [2] = molecular target: T1, DDB_G0270634 (Dictyostelium discoideum) (UniProt Q55D63); conditions: 20 nM protein, 1.5 uM RNA pool; 20 mM HEPES pH 7.8, 70 mM KCl, 10 mM NaCl, 10% glycerol, 2 mM DTT, 0.1 ug/uL BSA; 30 min, 4 C
# T1 sequence: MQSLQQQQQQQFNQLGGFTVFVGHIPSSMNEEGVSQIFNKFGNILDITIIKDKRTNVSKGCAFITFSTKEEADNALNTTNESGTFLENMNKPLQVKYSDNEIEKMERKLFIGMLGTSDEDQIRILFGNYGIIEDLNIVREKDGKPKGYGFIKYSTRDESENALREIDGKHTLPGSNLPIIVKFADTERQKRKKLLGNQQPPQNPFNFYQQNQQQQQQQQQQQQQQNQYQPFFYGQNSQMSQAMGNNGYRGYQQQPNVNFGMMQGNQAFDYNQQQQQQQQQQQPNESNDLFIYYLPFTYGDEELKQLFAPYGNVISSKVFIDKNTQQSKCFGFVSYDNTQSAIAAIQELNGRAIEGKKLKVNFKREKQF
# [3] = molecular target: T2, PK14112.1 (Cannabis sativa) (UniProt A0A7J6DPE0); conditions: 20 nM protein, 1.5 uM RNA pool; 20 mM HEPES pH 7.8, 70 mM KCl, 10 mM NaCl, 10% glycerol, 2 mM DTT, 0.1 ug/uL BSA; 30 min, 4 C
# T2 sequence: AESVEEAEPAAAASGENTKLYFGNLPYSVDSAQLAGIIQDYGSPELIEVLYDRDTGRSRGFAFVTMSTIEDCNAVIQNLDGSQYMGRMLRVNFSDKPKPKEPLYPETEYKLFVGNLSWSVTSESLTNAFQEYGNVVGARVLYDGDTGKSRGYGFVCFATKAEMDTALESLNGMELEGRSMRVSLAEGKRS
# [4] = molecular target: T3, RBM47 ins277_K (Meleagris gallopavo) (UniProt G1NI04); conditions: 20 nM protein, 1.5 uM RNA pool; 20 mM HEPES pH 7.8, 70 mM KCl, 10 mM NaCl, 10% glycerol, 2 mM DTT, 0.1 ug/uL BSA; 30 min, 4 C
# T3 sequence: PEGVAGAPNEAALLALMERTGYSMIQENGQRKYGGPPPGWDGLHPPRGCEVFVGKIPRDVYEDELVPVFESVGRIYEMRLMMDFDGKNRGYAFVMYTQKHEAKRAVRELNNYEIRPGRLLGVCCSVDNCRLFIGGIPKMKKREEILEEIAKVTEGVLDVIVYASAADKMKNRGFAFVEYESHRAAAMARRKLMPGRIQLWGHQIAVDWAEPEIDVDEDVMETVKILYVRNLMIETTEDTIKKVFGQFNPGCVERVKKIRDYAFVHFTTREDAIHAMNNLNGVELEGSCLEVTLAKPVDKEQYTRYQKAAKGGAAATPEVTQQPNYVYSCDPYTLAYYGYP
# [5] = molecular target: HNRNPA2B1 (Homo sapiens) (UniProt P22626); conditions: 20 nM protein, 1.5 uM RNA pool; 20 mM HEPES pH 7.8, 70 mM KCl, 10 mM NaCl, 10% glycerol, 2 mM DTT, 0.1 ug/uL BSA; 30 min, 4 C (protocol of this paper; not …); cited from earlier work
# Sequence of HNRNPA2B1 (Homo sapiens) (P22626 1-233): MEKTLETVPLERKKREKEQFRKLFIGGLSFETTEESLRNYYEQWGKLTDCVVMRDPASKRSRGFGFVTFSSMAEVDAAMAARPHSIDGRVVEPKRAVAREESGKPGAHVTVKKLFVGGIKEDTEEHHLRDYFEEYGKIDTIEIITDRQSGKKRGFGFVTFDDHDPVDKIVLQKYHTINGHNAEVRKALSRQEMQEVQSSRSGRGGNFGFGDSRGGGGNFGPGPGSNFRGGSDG
# [6] = molecular target: T4, Smp_032060 (Schistosoma mansoni) (UniProt G4LYM0); conditions: 20 nM protein, 1.5 uM RNA pool; 20 mM HEPES pH 7.8, 70 mM KCl, 10 mM NaCl, 10% glycerol, 2 mM DTT, 0.1 ug/uL BSA; 30 min, 4 C
# T4 sequence: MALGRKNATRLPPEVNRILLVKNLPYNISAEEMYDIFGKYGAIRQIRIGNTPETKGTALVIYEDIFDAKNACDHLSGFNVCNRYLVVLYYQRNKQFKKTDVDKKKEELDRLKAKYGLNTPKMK
# [7] = tested on: T5, PK15111.1 (Cannabis sativa); conditions: 20 nM protein, 1.5 uM RNA pool; 20 mM HEPES pH 7.8, 70 mM KCl, 10 mM NaCl, 10% glycerol, 2 mM DTT, 0.1 ug/uL BSA; 30 min, 4 C
# T5 sequence: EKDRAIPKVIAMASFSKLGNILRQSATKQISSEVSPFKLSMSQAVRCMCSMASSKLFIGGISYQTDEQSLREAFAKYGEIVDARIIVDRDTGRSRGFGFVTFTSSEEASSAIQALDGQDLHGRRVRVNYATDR
# [8] = molecular target: T6, PK27686.1 K290R (Cannabis sativa) (UniProt A0A7J6ICA3); conditions: 20 nM protein, 1.5 uM RNA pool; 20 mM HEPES pH 7.8, 70 mM KCl, 10 mM NaCl, 10% glycerol, 2 mM DTT, 0.1 ug/uL BSA; 30 min, 4 C
# T6 sequence: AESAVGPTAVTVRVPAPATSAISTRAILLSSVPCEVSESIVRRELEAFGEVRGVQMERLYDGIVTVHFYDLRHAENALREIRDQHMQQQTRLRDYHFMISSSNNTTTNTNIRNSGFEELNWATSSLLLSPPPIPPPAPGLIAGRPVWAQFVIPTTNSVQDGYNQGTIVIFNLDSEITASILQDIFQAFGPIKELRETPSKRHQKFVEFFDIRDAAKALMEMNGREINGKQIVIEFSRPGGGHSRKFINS
# [9] = molecular target: T7, PK26404.1 L183S (Cannabis sativa) (UniProt A0A7J6ELY7); conditions: 20 nM protein, 1.5 uM RNA pool; 20 mM HEPES pH 7.8, 70 mM KCl, 10 mM NaCl, 10% glycerol, 2 mM DTT, 0.1 ug/uL BSA; 30 min, 4 C
# T7 sequence: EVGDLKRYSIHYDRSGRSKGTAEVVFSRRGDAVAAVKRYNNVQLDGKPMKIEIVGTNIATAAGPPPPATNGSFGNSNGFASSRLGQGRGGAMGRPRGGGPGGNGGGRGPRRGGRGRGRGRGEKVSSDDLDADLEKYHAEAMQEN
# [10] = molecular target: T8, PK04894.1 Y197N (Cannabis sativa) (UniProt A0A803PQ48); conditions: 20 nM protein, 1.5 uM RNA pool; 20 mM HEPES pH 7.8, 70 mM KCl, 10 mM NaCl, 10% glycerol, 2 mM DTT, 0.1 ug/uL BSA; 30 min, 4 C
# T8 sequence: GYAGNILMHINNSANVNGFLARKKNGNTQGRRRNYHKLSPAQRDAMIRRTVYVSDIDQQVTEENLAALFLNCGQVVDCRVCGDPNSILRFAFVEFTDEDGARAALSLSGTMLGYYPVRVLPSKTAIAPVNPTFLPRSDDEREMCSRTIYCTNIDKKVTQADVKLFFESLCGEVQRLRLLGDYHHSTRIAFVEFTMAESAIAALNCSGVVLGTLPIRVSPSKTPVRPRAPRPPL
# Sequence of HNRNPA1L2 (Homo sapiens) (Q32P51 1-226): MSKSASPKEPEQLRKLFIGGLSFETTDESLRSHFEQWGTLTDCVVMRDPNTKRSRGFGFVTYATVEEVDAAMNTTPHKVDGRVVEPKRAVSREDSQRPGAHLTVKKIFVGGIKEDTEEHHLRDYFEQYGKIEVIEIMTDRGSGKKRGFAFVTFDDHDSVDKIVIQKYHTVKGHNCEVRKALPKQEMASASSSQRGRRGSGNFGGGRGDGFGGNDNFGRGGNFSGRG
substance,measurement,setting,value
UAGGG [RNAcompete motif RNCMPT00023],binding signal (z-score (mean of top ten 7-mers)),[1],7.23
UUUUUGU [RNAcompete motif RNCMPT00399],binding signal (z-score (mean of top ten 7-mers)),[2],8.63
GAUACUG [RNAcompete motif RNCMPT00392],binding signal (z-score (mean of top ten 7-mers)),[3],8.21
AGAUGA [RNAcompete motif RNCMPT00394],binding signal (z-score (mean of top ten 7-mers)),[4],8.98
UAGGGA [RNAcompete motif RNCMPT00024],binding signal (z-score (mean of top ten 7-mers)),[5],8.86
UUUUNCC [RNAcompete motif RNCMPT00396],binding signal (z-score (mean of top ten 7-mers)),[6],9.57
AAGUAGA [RNAcompete motif RNCMPT00368],binding signal (z-score (mean of top ten 7-mers)),[7],6.73
AAUUUU [RNAcompete motif RNCMPT00349],binding signal (z-score (mean of top ten 7-mers)),[8],14.6
GCGCGC [RNAcompete motif RNCMPT00364],binding signal (z-score (mean of top ten 7-mers)),[9],6.8
AAUAAG [RNAcompete motif RNCMPT00346],binding signal (z-score (mean of top ten 7-mers)),[10],15.1
